Results: patent publication US7998940B2, “Aptamers to von Willebrand factor and their use as thrombotic disease therapeutics” (Archemix Corp., priority 2004, dated 2011)
Positions count from the first letter of the chain named.

B1: AMX199.F7: DNA SELEX 1 aptamer clone (nucleic acid)
DNA: CTACCTACGATCTGACTAGCGGAATGAGAGTGCTGGTGGATTGCTCAGGTCTGCTGGCTGCTTACTCTCATGTAGTTCC
modifications: DNA, backbone not given here
notes: DNA SELEX 1 aptamer clone
B2: AMX199.C4: DNA SELEX 1 aptamer clone (nucleic acid)
DNA: B1 DNA with A29G, G30A, G36A, T45A
modifications: DNA, backbone not given here
notes: DNA SELEX 1 aptamer clone
B3: AMX199.B7: DNA SELEX 1 aptamer clone (nucleic acid)
DNA: B1 DNA with A23G
modifications: DNA, backbone not given here
notes: DNA SELEX 1 aptamer clone
B4: AMX200.D3: DNA SELEX 1 aptamer clone (nucleic acid)
DNA: B1 DNA with G22C, A29G, G30A, G36A
modifications: DNA, backbone not given here
notes: DNA SELEX 1 aptamer clone
B5: AMX199.D11: DNA SELEX 1 aptamer clone (nucleic acid)
DNA: B1 DNA with G30A
modifications: DNA, backbone not given here
notes: DNA SELEX 1 aptamer clone
B6: AMX200.F11: DNA SELEX 1 aptamer clone (nucleic acid)
DNA: B1 DNA with A29G, G30A
modifications: DNA, backbone not given here
notes: DNA SELEX 1 aptamer clone
B7: AMX199.B3: DNA SELEX 1 aptamer clone (nucleic acid)
DNA: B1 DNA with G30A, G36A
modifications: DNA, backbone not given here
notes: DNA SELEX 1 aptamer clone
B8: AMX199.C2: DNA SELEX 1 aptamer clone (nucleic acid)
DNA: B1 DNA with G30A, T45C
modifications: DNA, backbone not given here
notes: DNA SELEX 1 aptamer clone

Each molecule was assayed against T1, human vWF A1 domain (SEQ ID NO 5) (Homo sapiens, UniProt P04275, T1381A) (assay: 3-point dot blot screen, human vWF A1 domain). Settings: DNA SELEX 1 aptamers; 100 nM human vWF A1 domain; ratio of fraction bound with target to without.
T1 sequence (P04275 with tags, fused parts or gaps T1381A): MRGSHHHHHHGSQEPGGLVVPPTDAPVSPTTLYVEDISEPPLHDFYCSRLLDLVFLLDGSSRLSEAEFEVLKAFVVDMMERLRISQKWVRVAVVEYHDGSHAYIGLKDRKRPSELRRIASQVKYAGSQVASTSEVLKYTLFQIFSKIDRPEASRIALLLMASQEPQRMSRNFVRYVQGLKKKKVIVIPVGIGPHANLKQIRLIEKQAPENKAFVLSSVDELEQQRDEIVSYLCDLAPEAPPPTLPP
Format: binding
How it was run: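 Values are ratios of aptamer fraction retained on nitrocellulose with 100 nM vWF A1 domain (human or rabbit) versus a no-protein control. Unique clones from rounds 9 and 12 pools were transcribed, desalted and 5'-32P labeled before this three-point dot blot screen.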

Molecule	Screen- Human/No Protein
B1	5.47
B2	3.60
B3	4.08
B4	2.68
B5	4.19
B6	3.83
B7	1.76
B8	5.09

These molecules were tested against T1, human vWF A1 domain (SEQ ID NO 5) (assay: dot blot KD determination, human vWF A1 domain). Settings: read-out: Human A1 KD; DNA SELEX 1 aptamers; competition dot blot, 100 nM protein, cold competitor titration.

Molecule	Kd [nM]
B1	22
B2	34
B3	29
B4	36
B5	30
B6	34
B7	30
B8	17

What follows are molecules tested on rabbit vWF A1 domain (SEQ ID NO 6) (assay: 3-point dot blot screen, rabbit vWF A1 domain). Settings: DNA SELEX 1 aptamers; 100 nM rabbit vWF A1 domain; ratio of fraction bound with target to without.
rabbit vWF A1 domain (SEQ ID NO 6), sequence (as listed by the source): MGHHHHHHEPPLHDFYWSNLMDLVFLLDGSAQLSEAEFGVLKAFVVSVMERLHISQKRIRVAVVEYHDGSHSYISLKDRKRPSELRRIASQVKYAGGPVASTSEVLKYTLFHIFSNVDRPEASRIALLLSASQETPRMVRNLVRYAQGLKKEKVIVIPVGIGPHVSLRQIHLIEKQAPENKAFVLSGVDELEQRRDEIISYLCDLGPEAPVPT
Format: binding
How it was run: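 Rabbit vWF A1 domain binding was screened by dot blot using three conditions: no target protein, human vWF, and rabbit vWF A1 domain at 100 nM (20 nM in the screen run twice). Radiolabeled aptamer bound to nitrocellulose was quantified, and results are expressed as the ratio of bound fraction with protein to bound fraction without protein.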

Molecule	Screen- Rabbit/No Protein
B1	5.00
B2	2.85
B3	3.65
B4	2.41
B5	3.42
B6	3.25
B7	1.99
B8	4.61
